± gives the standard deviation of the averaged measurements.
B1: library; a variant is named by its letters at N, in order (parent)
chain: GCUGUCACCGAGAAACUGUGAAGUAUAUCUUAAACCUGGGCACUUAAAAGAUAUAUGGAGUUAGUAGUGCAACCUGCUCGGUCUGAUGAGUCCNNNNNNGGACGAAACAGC

Tests used:
cyclic di-GMP [1] = variants of: B1; assay: normalized RNA/DNA level without ligand (relative to sTRSVctl = 100) (log10 (% of sTRSVctl)); HEK293T; ligand: cyclic di-GMP (c-di-GMP-II aptamer); higher = less ribozyme self-cleavage, higher mRNA level; conditions: reporter: mCherry (pCS4076), ligand present: no
Outline: (§1)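 HEK293T cells received ligand, where used, 1 h before being transfected with 4 µg per 6-well well of library plasmids encoding reporter-linked ribozyme switches. After 72 h, RNA was extracted with EDTA and sequenced. RNA level was derived from RNA reads per DNA read, normalized to a spiked-in non-cleaving sequence or the top sequences, then scaled and log-transformed. Values were ×100 then log10, the top set was 25 sequences, and the minimum was 100 DNA reads.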

cyclic di-GMP [2] = variants of: B1; assay: normalized RNA/DNA level with ligand (relative to sTRSVctl = 100) (log10 (% of sTRSVctl)); HEK293T; ligand: cyclic di-GMP (c-di-GMP-II aptamer); ligand concentration (+) RNA-Seq: 1 mM; higher = less ribozyme self-cleavage, higher mRNA level; conditions: reporter: mCherry (pCS4076), ligand present: yes
Outline: as §1

Row | Variant | normalized RNA/DNA level without ligand (log10) (cyclic di-GMP [1]) | normalized RNA/DNA level with ligand (log10) (cyclic di-GMP [2])
1 | UUGCGC | 1.74 ± 0.027 | 1.83 ± 0.072
2 | CUGUUC | 1.64 ± 0.038 | 1.79 ± 0.12
3 | CUGUUG | 1.56 ± 0.035 | 1.69 ± 0.076
4 | CUGUUU | 1.575 ± 0.0091 | 1.72 ± 0.12
5 | GUUCCC | 1.8 ± 0.021 | 1.9 ± 0.13
6 | GUUCCU | 1.76 ± 0.079 | 1.89 ± 0.13
7 | GUUCCG | 1.82 ± 0.039 | 1.94 ± 0.1
8 | AUGGCA | 1.61 ± 0.02 | 1.75 ± 0.046
9 | AUGGCC | 1.78 ± 0.024 | 1.9 ± 0.13
10 | AUGGCG | 1.69 ± 0.039 | 1.83 ± 0.053
11 | AUGGCU | 1.75 ± 0.031 | 1.86 ± 0.15
12 | CUGUGG | 1.7 ± 0.048 | 1.85 ± 0.11
13 | CUGUGA | 1.54 ± 0.075 | 1.77 ± 0.081
14 | CUGUGC | 1.739 ± 0.013 | 1.85 ± 0.095
15 | CUGUGU | 1.75 ± 0.027 | 1.86 ± 0.11
16 | UUUGAA | 1.59 ± 0.017 | 1.76 ± 0.1
17 | UUUGAC | 1.71 ± 0.03 | 1.87 ± 0.11
18 | AUUACU | 1.73 ± 0.029 | 1.86 ± 0.081
19 | AUUACA | 1.63 ± 0.027 | 1.79 ± 0.071
20 | AUUACC | 1.73 ± 0.057 | 1.88 ± 0.052
21 | AUGCCG | 1.7503 ± 0.0015 | 1.86 ± 0.13
22 | AUGCCU | 1.74 ± 0.044 | 1.87 ± 0.14
23 | CUGUAC | 1.67 ± 0.033 | 1.82 ± 0.096
24 | CUGUAG | 1.66 ± 0.051 | 1.84 ± 0.1

Row | Variant | normalized RNA/DNA level without ligand (log10) (cyclic di-GMP [1]) | normalized RNA/DNA level with ligand (log10) (cyclic di-GMP [2])
25 | CUGUAA | 1.26 ± 0.086 | 1.51 ± 0.1
26 | AUUAGG | 1.56 ± 0.065 | 1.72 ± 0.17
27 | AUUAGA | 1.52 ± 0.12 | 1.69 ± 0.058
28 | AUUAGU | 1.686 ± 0.01 | 1.83 ± 0.11
29 | GUGGAG | 1.61 ± 0.059 | 1.71 ± 0.092
30 | CUGGCU | 1.771 ± 0.0077 | 1.87 ± 0.067
31 | CUGGCC | 1.8041 ± 0.00089 | 1.87 ± 0.096
32 | CUGGCG | 1.74 ± 0.057 | 1.85 ± 0.092
33 | CUGGCA | 1.638 ± 0.015 | 1.73 ± 0.14
34 | UUUAGC | 1.76 ± 0.054 | 1.86 ± 0.14
35 | UUUAGG | 1.87 ± 0.057 | 1.96 ± 0.14
36 | UUUAGA | 1.716 ± 0.011 | 1.87 ± 0.086
37 | CUGCGU | 1.723 ± 0.013 | 1.84 ± 0.1
38 | CUGCGC | 1.823 ± 0.0074 | 1.92 ± 0.052
39 | GUGCCU | 1.81 ± 0.04 | 1.87 ± 0.1
40 | AUGGGG | 1.56 ± 0.12 | 1.68 ± 0.08
41 | AUGGGA | 1.4 ± 0.12 | 1.56 ± 0.074
42 | AUGGGC | 1.626 ± 0.015 | 1.79 ± 0.16
43 | CUUACU | 1.59 ± 0.079 | 1.79 ± 0.048
44 | CUUACG | 1.82 ± 0.085 | 1.87 ± 0.19
45 | CUUACC | 1.77 ± 0.049 | 1.86 ± 0.15
46 | GUUCAC | 1.737 ± 0.013 | 1.87 ± 0.09
47 | GUUCAA | 1.62 ± 0.059 | 1.81 ± 0.083
48 | GUUCAG | 1.77 ± 0.023 | 1.86 ± 0.12

Row | Variant | normalized RNA/DNA level without ligand (log10) (cyclic di-GMP [1]) | normalized RNA/DNA level with ligand (log10) (cyclic di-GMP [2])
49 | GUUCUC | 1.75 ± 0.035 | 1.88 ± 0.068
50 | GUUCUU | 1.7 ± 0.084 | 1.84 ± 0.12
51 | CUGCCG | 1.78 ± 0.011 | 1.92 ± 0.064
52 | CUGCCU | 1.64 ± 0.028 | 1.81 ± 0.15
53 | AUUAAC | 1.655 ± 0.015 | 1.76 ± 0.15
54 | AUUAAG | 1.55 ± 0.041 | 1.75 ± 0.14
55 | AUUAAU | 1.674 ± 0.015 | 1.8 ± 0.12
56 | CUUAUU | 1.54 ± 0.023 | 1.71 ± 0.065
57 | CUUAUG | 1.67 ± 0.022 | 1.81 ± 0.1
58 | CUUAUC | 1.73 ± 0.088 | 1.87 ± 0.14
59 | AUUCGA | 1.58 ± 0.023 | 1.71 ± 0.066
60 | AUUCGU | 1.79 ± 0.024 | 1.86 ± 0.12
61 | UUUCCG | 1.8104 ± 0.0015 | 1.92 ± 0.056
62 | UUUCCU | 1.812 ± 0.016 | 1.92 ± 0.1
63 | UUUCCA | 1.78 ± 0.028 | 1.9 ± 0.13
64 | UUUCCC | 1.83 ± 0.07 | 1.94 ± 0.13
65 | CUUCGA | 1.71 ± 0.026 | 1.84 ± 0.065
66 | CUUCGU | 1.8 ± 0.04 | 1.87 ± 0.094
67 | CUUCGG | 1.82 ± 0.028 | 1.886 ± 0.0058
68 | CUUCGC | 1.79 ± 0.024 | 1.83 ± 0.056
69 | AUUCCG | 1.75 ± 0.021 | 1.84 ± 0.078
70 | AUUCCU | 1.74 ± 0.044 | 1.86 ± 0.1
71 | AUGCGU | 1.679 ± 0.011 | 1.79 ± 0.099
72 | AUGCGC | 1.732 ± 0.016 | 1.86 ± 0.099

Row | Variant | normalized RNA/DNA level without ligand (log10) (cyclic di-GMP [1]) | normalized RNA/DNA level with ligand (log10) (cyclic di-GMP [2])
73 | AUGCGG | 1.74 ± 0.024 | 1.82 ± 0.098
74 | GUGGCU | 1.76 ± 0.029 | 1.86 ± 0.074
75 | GUGGCG | 1.85 ± 0.022 | 1.87 ± 0.094
76 | GUGGCA | 1.81 ± 0.027 | 1.91 ± 0.097
77 | GUGUUU | 1.72 ± 0.023 | 1.9 ± 0.092
78 | GUUAGC | 1.72 ± 0.02 | 1.85 ± 0.12
79 | GUUAGU | 1.66 ± 0.017 | 1.8 ± 0.13
80 | GUGUAA | 1.48 ± 0.027 | 1.67 ± 0.1
81 | GUGUAC | 1.58 ± 0.025 | 1.78 ± 0.089
82 | GUGUAU | 1.6 ± 0.018 | 1.78 ± 0.14
83 | GUGUAG | 1.7031 ± 0.0011 | 1.85 ± 0.095
84 | CUGGGG | 1.648 ± 0.0018 | 1.83 ± 0.19
85 | CUGGGC | 1.733 ± 0.0023 | 1.88 ± 0.09
86 | CUGGGU | 1.71 ± 0.033 | 1.85 ± 0.13
87 | CUGGGA | 1.55 ± 0.09 | 1.74 ± 0.093
88 | UUGUGA | 1.599 ± 0.011 | 1.79 ± 0.11
89 | UUGUGU | 1.716 ± 0.015 | 1.88 ± 0.11
90 | UUGUGG | 1.795 ± 0.0063 | 1.9 ± 0.1
91 | UUGUGC | 1.75 ± 0.027 | 1.86 ± 0.052
92 | UUUAAG | 1.72 ± 0.027 | 1.85 ± 0.11
93 | UUUAAA | 1.654 ± 0.0051 | 1.79 ± 0.081
94 | UUUCGG | 1.8 ± 0.066 | 1.93 ± 0.12
95 | UUUCGC | 1.789 ± 0.0088 | 1.89 ± 0.14
96 | UUUCGU | 1.72 ± 0.025 | 1.86 ± 0.083

Row | Variant | normalized RNA/DNA level without ligand (log10) (cyclic di-GMP [1]) | normalized RNA/DNA level with ligand (log10) (cyclic di-GMP [2])
97 | GUGGGA | 1.53 ± 0.073 | 1.72 ± 0.07
98 | GUGGGU | 1.66 ± 0.081 | 1.85 ± 0.064
99 | GUGGGG | 1.65 ± 0.021 | 1.8 ± 0.14
100 | GUGGGC | 1.44 ± 0.058 | 1.68 ± 0.13
101 | CUUAAG | 1.69 ± 0.05 | 1.89 ± 0.079
102 | CUUAAC | 1.679 ± 0.014 | 1.8 ± 0.079
103 | GUUCGG | 1.71 ± 0.018 | 1.84 ± 0.12
104 | GUUCGC | 1.83 ± 0.062 | 1.92 ± 0.073
105 | UUGGUC | 1.77 ± 0.0052 | 1.86 ± 0.11
106 | UUGGUG | 1.6 ± 0.1 | 1.78 ± 0.11
107 | UUGGUU | 1.7 ± 0.027 | 1.84 ± 0.097
108 | UUGGUA | 1.45 ± 0.084 | 1.73 ± 0.11
109 | AUGGUC | 1.67 ± 0.018 | 1.81 ± 0.1
110 | AUGGUU | 1.46 ± 0.03 | 1.68 ± 0.1
111 | UUGUCC | 1.8 ± 0.026 | 1.89 ± 0.098
112 | UUGUCU | 1.8 ± 0.03 | 1.92 ± 0.086
113 | UUGUCA | 1.77 ± 0.045 | 1.9 ± 0.1
114 | UUGUCG | 1.79 ± 0.032 | 1.89 ± 0.05
115 | GUUAAC | 1.67 ± 0.046 | 1.8 ± 0.037
116 | GUUAAA | 1.51 ± 0.079 | 1.7 ± 0.12

From the supplement of paper PMC6757056
